Values of other authors in patent US11672857B2, “Compositions and methods for a multi-adjuvant only approach to immunoprophylaxis for preventing infections” (University of Southern California, priority 2017, dated 2023).

Test system: T cell
Conditions: compared with non-glycosylated ovalbumin produced in E. coli

B1: Yeast-mannosylated ovalbumin: recombinant ovalbumin mannosylated by yeast during production (Lam et al.) (protein, UniProt P01012 2-386, looked up)
Ovalbumin: GSIGAASMEFCFDVFKELKVHHANENIFYCPIAIMSALAMVYLGAKDSTRTQINKVVRFDKLPGFGDSIEAQCGTSVNVHSSLRDILNQITKPNDVYSFSLASRLYAEERYPILPEYLQCVKELYRGGLEPINFQTAADQARELINSWVESQTNGIIRNVLQPSSVDSQTAMVLVNAIVFKGLWEKAFKDEDTQAMPFRVTEQESKPVQMMYQIGLFRVASMASEKMKILELPFASGTMSMLVLLPDEVSGLEQLESIINFEKLTEWTSSNVMEERKIKVYLPRMKMEEKYNLTSVLMAMGITDVFSSSANLSGISSAESLKISQAVHAAHAEINEAGREVVGSAEAGVDAASVSEEFRADHPFLFCIKHIATNAVLFFGRCVSP
modifications: yeast mannosylation
For B1, the T cell proliferation is listed as “significantly greater T cell proliferation than did non-glycosylated ovalbumin produced in E. coli”.
